The text below walks through data of US20200405868A1, “GEL-FORMING POLYPEPTIDES” (priority 2018, published 2020).

“Also recorded” adds a separate entry of the source. Where no end group is shown, it is not given here. The star is where a group is joined. Palmitoyl = CCCCCCCCCCCCCCCC(=O)*

The data set can be described thus: Compound gel-forming ability in water (visual inspection, tube tapping assay, tilted tube assay).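 On all read-outs here: peptides mixed with de-ionized water at about 22-25 °C, judged after 20 min by eye plus tube tapping (10 taps, moves counted) and 90° tilt mobility.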 In kind it is physicochemical. The following applies: for gel formation at 6% w/w: 6% w/w in water; for gel formation at 11% w/w: 11% w/w in water; for gel formation in aqueous solution, 6% / gel formation in aqueous solution, 11% / gel formation in aqueous solution, 20%: Table 3; for gel formation in aqueous solution, 6% / propensity to form gels, wild-type counterparts, 6% / propensity to form gels, chimeric or mutated polypeptides, 6%: 6% w/w; for gel formation in aqueous solution, 11% / propensity to form gels, wild-type counterparts, 11% / propensity to form gels, chimeric or mutated polypeptides, 11%: 11% w/w; for propensity to form gels, wild-type counterparts, 6% / propensity to form gels, wild-type counterparts, 11% / propensity to form gels, wild-type counterparts, 20% / propensity to form gels, chimeric or mutated polypeptides, 3% / propensity to form gels, chimeric or mutated polypeptides, 11% / propensity to form gels, chimeric or mutated polypeptides, 6%: Table 5; for gel formation at 20% w/w: 20% w/w in water; for gel formation in aqueous solution, 20% / propensity to form gels, wild-type counterparts, 20%: 20% w/w; for propensity to form gels, chimeric or mutated polypeptides, 3%: 3% w/w; for Physical property at 11% w/w: 11% w/w in aqueous solution, room temperature.

Procedure: Determination of Compound Gel-forming Ability in Water: To determine the solubility of polypeptides at room temperature, 1, 2, 3, 4, 5, 20, or 100 mg of a selected peptide is weighed and deposited into a clear plastic or glass vial and an aliquot of de-ionized water was then added to the vial. The procedure takes place in a room which is maintained at approximately 22-25° C. […] Insoluble peptides sample retained the particles or paste-like characteristics after 20 min of reaction. In addition to visual inspection, we performed a tube tapping assay and a tilted tube assay to differentiate the gelling status of peptide solutions.
To determine the solubility of polypeptides at room temperature, 1, 2, 3, 4, 5, 20, or 100 mg of a selected peptide is weighed and deposited into a clear plastic vial and an aliquot of de-ionized water was then added to the vial. The procedure takes place in a room which is maintained at approximately 22-25° C. Polypeptide sample which is considered soluble dissolves instantly in water and stays as a clear solution without obvious macroscopic change in viscosity at 20 min after mixing with water. […] If macroscopic particles of peptides remain in the solution at 20 min after mixing with water, the peptide is considered insoluble or precipitated at the given concentration. In this case, the quality of peptides is further judged by two other criteria: (1) mobility following a tapping of the tube (tube tapping assay) and (2) mobility flowing tilting the tube by 900 (tilted tube assay). In the first assay, the tube is tapped with the finger for 10 times, and the number of times that the body of the solution changes position is recorded. An aqueous solution such as water will have a score of 9 or 10 in this assay; meaning that the body of the liquid moves every time when one taps the tube. […] Those with moderate viscosity form liquid gel that changes the conformation slowly when the container tube is tapped with a finger or tilted. […] If macroscopic change in the position of the body of gel was observed 5-9 time out of 10 separate tapping tests, the gel is considered a liquid gel. The high viscosity of a liquid gel is further confirmed using the tilted tube assay. […] If the liquid or gel body takes more than 15 seconds to flow to the bottom of the tilted tube, the resulting aqueous mass is considered a liquid gel.
To allow systematic analysis of the gel-forming ability, the assay was first conducted at a peptide concentration of 11% w/w in aqueous solution. The peptides analyzed included functional regulators of cell surface receptors, enzymes, complement factors, antimicrobial peptides, immunomodulators, therapeutic peptides, cell-penetrating peptide, antigens, matrikines, and analogs of CGRP, adrenomedullin and adenomedullin 2 (or intermedin).

For the substance “KRPPGFS-(Dβal)-Ile-NH2 [SEQ ID NO:65, reference compound]”, the “gel formation at 6% w/w” value is reported as “does not form a gel”; the “gel formation at 11% w/w” value is reported as “does not form a gel”; the “gel formation in aqueous solution, 6%” value is “AS/IS (AS/IS for aqueous solution or insoluble)”; the “gel formation in aqueous solution, 11%” value is “AS/IS (AS/IS for aqueous solution or insoluble)”. The “propensity to form gels, wild-type counterparts, 6%” value was “AS/IS” and the “propensity to form gels, wild-type counterparts, 11%” value is reported as “AS/IS”.
For the substance “SDAAVDTSSEITTKDLKEKKEVVEEAEN-NH2 (ends and bridges not checked) [SEQ ID NO:13, reference compound]”, the “gel formation at 11% w/w” value is on record as “form self-assembling gels; also recorded: liquid gel”; the “gel formation at 20% w/w” value is listed as “semisolid gel”; the “gel formation in aqueous solution, 20%” value is “SS (SS for semisolid gel)”; the “propensity to form gels, wild-type counterparts, 20%” value (“propensity to form gels … 20%” for short) was “SS (An ability to form semisolid gel is represented by an SS)”.
For the substance “(G1p)RPRLSHKGP(Nle)PF-K(Pal)HSY-NH2 [SEQ ID NO:262]”, the “gel formation at 11% w/w” value was “liquid gel”; the “gel formation at 20% w/w” value was “liquid gel”; the “propensity to form gels, chimeric or mutated polypeptides, 3%” value is reported as “AS/IS”.
“(Myristic acid)-SSPHSY-NH2 [SEQ ID NO:123]”: under “Table 2”, the “Physical property at 11% w/w” value is “SS (SS for semisolid gel)”.
Turning to “HAEGTFTSDVSSYLEGQAAKEFIAWLVKGR-NH2 [SEQ ID NO:14, reference compound]”, the “gel formation at 11% w/w” value is on record as “liquid gel”; the “gel formation in aqueous solution, 6%” value is “AS/IS (AS/IS for aqueous solution or insoluble)”; the “propensity to form gels, wild-type counterparts, 6%” value is on record as “AS/IS”.
Turning to enfuvirtide, the “Physical property at 11% w/w” value (Table 1) was “AS/IS”.
In the case of “Pal-KVQKLSAPVDPSSPHSY-miniPEG-HAEGTFTSDVSSYLEGQAAKEFIAWLVKGR-NH2 [SEQ ID NO:220]”, the “gel formation in aqueous solution, 11%” value is recorded as “SS (SS for semisolid gel)” and the “propensity to form gels, chimeric or mutated polypeptides, 11%” value is given as “SS (An ability to form semisolid gel is represented by an SS)”.
For “Pal-SSPHSY-miniPEG-RGD-NH2 [SEQ ID NO:247]”, the “gel formation at 11% w/w” value is reported as “semisolid gel”; the “gel formation in aqueous solution, 11%” value was “SS (SS for semisolid gel)”; the “propensity to form gels, chimeric or mutated polypeptides, 11%” value is recorded as “SS (An ability to form semisolid gel is represented by an SS)”.
As for “Pal-KVQKLSAPVDPSSPHSY-miniPEG-Y-(D-Met)-FHLMD-NH2 [SEQ ID NO:210]”, the “gel formation at 6% w/w” value was “semisolid or liquid gel”; the “gel formation at 11% w/w” value is “semisolid gel”; the “gel formation in aqueous solution, 6%” value was “SS (SS for semisolid gel)”; the “gel formation in aqueous solution, 11%” value was “SS (SS for semisolid gel)”. Moreover, the “propensity to form gels, chimeric or mutated polypeptides, 6%” value was “SS (An ability to form semisolid gel is represented by an SS)” and the “propensity to form gels, chimeric or mutated polypeptides, 11%” value was “SS (An ability to form semisolid gel is represented by an SS)”.
For the substance “Pal-KVQKLAHQIYQFTDK(Aib)SAPVDPSSPHSY-NH2 [SEQ ID NO:125]”, under “Table 2”, the “Physical property at 11% w/w” value is recorded as “AS/IS (AS/IS for aqueous solution or insoluble)”.
On to “FKFEFKFE-miniPEG-RPKPQQFFGLM-NH2 [SEQ ID NO:284]”, for which the “gel formation in aqueous solution, 6%” value is “AS/IS (AS/IS for aqueous solution or insoluble)” and the “gel formation in aqueous solution, 11%” value is given as “AS/IS (AS/IS for aqueous solution or insoluble)”.
As to “HGDGSFSDEMNTILDNLAARDFINWLIQTKITD-OH [SEQ ID NO:12, reference compound]”, the “gel formation at 11% w/w” value is recorded as “liquid gel”; the “gel formation in aqueous solution, 6%” value is “AS/IS (AS/IS for aqueous solution or insoluble)”; the “propensity to form gels, wild-type counterparts, 6%” value is given as “AS/IS”.
With “miniPEG-K(PAL)GCRFGTCTVQKLAHQIYQFTDKDVAPRSKISP(D-Gln)GY-NH2 [SEQ ID NO:48]”, the “gel formation at 11% w/w” value is recorded as “semisolid gel”. Also, the “Physical property at 11% w/w” value (Table 1) is recorded as “SS (SS for semisolid gel)”.
As for “YIGSR-NH2 [SEQ ID NO:39, reference compound]”, the “gel formation in aqueous solution, 11%” value is “AS/IS (AS/IS for aqueous solution or insoluble)” and the “propensity to form gels, wild-type counterparts, 11%” value is reported as “AS/IS”. For the setting “Table 1”, the “Physical property at 11% w/w” value is “AS/IS”.
With “VKVKVKVKV(D-Pro)PTKVKVKVKV-miniPEG-RPKPQQFFGLM-NH2 [SEQ ID NO:286]”, the “gel formation in aqueous solution, 6%” value is recorded as “AS/IS (AS/IS for aqueous solution or insoluble)” and the “gel formation in aqueous solution, 11%” value was “AS/IS (AS/IS for aqueous solution or insoluble)”.
“YNWNSFGLRF-NH2 [SEQ ID NO:6, reference compound]”: the “gel formation at 6% w/w” value is reported as “semisolid gel”; the “gel formation at 11% w/w” value is recorded as “form self-assembling gels; also recorded: semisolid gel”; the “gel formation in aqueous solution, 6%” value is given as “SS (SS for semisolid gel)”; the “gel formation in aqueous solution, 11%” value is “SS (SS for semisolid gel)”. In addition, the “propensity to form gels, wild-type counterparts, 6%” value is “SS (An ability to form semisolid gel is represented by an SS)” and the “propensity to form gels, wild-type counterparts, 11%” value is “SS (An ability to form semisolid gel is represented by an SS)”. Besides, the “Physical property at 11% w/w” value (Table 1) was “SS (SS for semisolid gel)”.
“KTTKS-NH2 [SEQ ID NO:43, reference compound]”: under “Table 1”, the “Physical property at 11% w/w” value is “AS/IS”.
Consider “Pal-VQKLVDPSSPHSY-NH2 (Palmitoyl-VQKLVDPSSPHSY-NH2; SMILES CCCCCCCCCCCCCCCC(=O)N[C@H](C(=O)N[C@@H](CCC(N)=O)C(=O)N[C@@H](CCCCN)C(=O)N[C@@H](CC(C)C)C(=O)N[C@H](C(=O)N[C@@H](CC(=O)O)C(=O)N1CCC[C@H]1C(=O)N[C@@H](CO)C(=O)N[C@@H](CO)C(=O)N1CCC[C@H]1C(=O)N[C@@H](Cc1c[nH]cn1)C(=O)N[C@@H](CO)C(=O)N[C@@H](Cc1ccc(O)cc1)C(N)=O)C(C)C)C(C)C) [SEQ ID NO:112]”, for which, where the note is “Table 2”, the “Physical property at 11% w/w” value is “SS (SS for semisolid gel)”.
“Pal-KVQKLSAPVDPSSPHSY-miniPEG-RPKPQQFFGLM-NH2 [SEQ ID NO:215]”: the “gel formation in aqueous solution, 6%” value is listed as “AS/IS (AS/IS for aqueous solution or insoluble)”; the “gel formation in aqueous solution, 11%” value was “SS (SS for semisolid gel)”; the “propensity to form gels, chimeric or mutated polypeptides, 6%” value was “AS/IS”; the “propensity to form gels, chimeric or mutated polypeptides, 11%” value is “SS (An ability to form semisolid gel is represented by an SS)”.
Consider Pal-SSPHSY-NH2 [SEQ ID NO:119], for which, under “Table 2”, the “Physical property at 11% w/w” value is “SS (SS for semisolid gel)”.
As for “HSDAVFTDNYTRLRKQMAVKKYLNSILN [SEQ ID NO:67, reference compound]”, the “gel formation at 11% w/w” value is given as “does not form gel”; the “gel formation at 20% w/w” value is listed as “does not form gel”; the “gel formation in aqueous solution, 11%” value is “AS/IS (AS/IS for aqueous solution or insoluble)”; the “gel formation in aqueous solution, 20%” value is “AS/IS (AS/IS for aqueous solution or insoluble)”. The “propensity to form gels, wild-type counterparts, 11%” value is on record as “AS/IS” and the “propensity to form gels … 20%” value is reported as “AS/IS”.
In the case of “(D-Phe)-QWAVGHL-(4-CI)Phe-NH2 [SEQ ID NO:61, reference compound]”, the “gel formation at 11% w/w” value is on record as “form self-assembling gels”; the “gel formation in aqueous solution, 6%” value is on record as “SS (SS for semisolid gel)”; the “gel formation in aqueous solution, 11%” value is “SS (SS for semisolid gel)”; the “propensity to form gels, wild-type counterparts, 6%” value was “SS (An ability to form semisolid gel is represented by an SS)”. The “propensity to form gels, wild-type counterparts, 11%” value is “SS (An ability to form semisolid gel is represented by an SS)”. In addition, where the note is “Table 1”, the “Physical property at 11% w/w” value is reported as “SS (SS for semisolid gel)”.
Take “Pal-HSY-(D-Phe)-QWAVGHL-(4-Cl)Phe-NH2 [SEQ ID NO:255]”: the “gel formation in aqueous solution, 11%” value is “SS (SS for semisolid gel)”; the “propensity to form gels, chimeric or mutated polypeptides, 3%” value is on record as “AS/IS”; the “propensity to form gels, chimeric or mutated polypeptides, 11%” value is “SS (An ability to form semisolid gel is represented by an SS)”.
“Pal-HSYGTFTSDVSSYLEGQAAKEFIAWLVKGR-NH2 (Palmitoyl-HSYGTFTSDVSSYLEGQAAKEFIAWLVKGR-NH2; SMILES CCCCCCCCCCCCCCCC(=O)N[C@@H](Cc1c[nH]cn1)C(=O)N[C@@H](CO)C(=O)N[C@@H](Cc1ccc(O)cc1)C(=O)NCC(=O)N[C@H](C(=O)N[C@@H](Cc1ccccc1)C(=O)N[C@H](C(=O)N[C@@H](CO)C(=O)N[C@@H](CC(=O)O)C(=O)N[C@H](C(=O)N[C@@H](CO)C(=O)N[C@@H](CO)C(=O)N[C@@H](Cc1ccc(O)cc1)C(=O)N[C@@H](CC(C)C)C(=O)N[C@@H](CCC(=O)O)C(=O)NCC(=O)N[C@@H](CCC(N)=O)C(=O)N[C@@H](C)C(=O)N[C@@H](C)C(=O)N[C@@H](CCCCN)C(=O)N[C@@H](CCC(=O)O)C(=O)N[C@@H](Cc1ccccc1)C(=O)N[C@H](C(=O)N[C@@H](C)C(=O)N[C@@H](Cc1c[nH]c2ccccc12)C(=O)N[C@@H](CC(C)C)C(=O)N[C@H](C(=O)N[C@@H](CCCCN)C(=O)NCC(=O)N[C@@H](CCCNC(=N)N)C(N)=O)C(C)C)[C@@H](C)CC)C(C)C)[C@@H](C)O)[C@@H](C)O) [SEQ ID NO:221]”: the “gel formation in aqueous solution, 6%” value is “SS (SS for semisolid gel)” and the “propensity to form gels, chimeric or mutated polypeptides, 6%” value is recorded as “SS (An ability to form semisolid gel is represented by an SS)”.
For the substance “Pal-KVQKLNFVPTNVGSKAF-NH2 [SEQ ID NO:135]”, the “Physical property at 11% w/w” value (Table 2) was “AS/IS (AS/IS for aqueous solution or insoluble)”.
Turning to “SYSMEHFRWGKPVGKKRRPVKVYP-OH [SEQ ID NO:33, reference compound]”, the “gel formation at 11% w/w” value is reported as “does not form gel”; the “gel formation at 20% w/w” value was “does not form gel”; the “gel formation in aqueous solution, 11%” value is recorded as “AS/IS (AS/IS for aqueous solution or insoluble)”; the “gel formation in aqueous solution, 20%” value is given as “AS/IS (AS/IS for aqueous solution or insoluble)”. Besides, the “propensity to form gels, wild-type counterparts, 11%” value is “AS/IS” and the “propensity to form gels … 20%” value is on record as “AS/IS”. The “Physical property at 11% w/w” value (Table 1) was “AS/IS”.
Turning to “Pal-KVQKLAHQIYQFTDKD(Aib)APVDPSSPHSY-NH2 [SEQ ID NO:126]”, the “Physical property at 11% w/w” value (Table 2) is “SS (SS for semisolid gel)”.
